Assay results: EP2239269B1, “Use of peptides derived from copolymer-1 as molecular weight markers” (YEDA RESEARCH AND DEVELOPMENT CO., LTD., priority 1998, dated 2013)

B1: TV-66: 66-mer sequence-defined polypeptide molecular weight marker of Ala, Glu, Tyr, Lys, molecular weight = 7040 daltons (peptide)
chain: AKKYAKKEKAYAKAKKAEAKAAKKAKAEAKKYAKAAKAEKKEYAAAEAKYKAEAAKAAAKEAAYEA
B2: TV-77: 77-mer sequence-defined polypeptide molecular weight marker of Ala, Glu, Tyr, Lys, molecular weight = 8259 daltons (peptide)
chain: AKKYAKKEKAYAKKAEKAAKKAEAKAYKAAEAKKKAKAEAKKYAKAAKAEKKEYAAAEAKYKAEAAKAAAKEAAYEA
B3: TV-86: 86-mer sequence-defined polypeptide molecular weight marker of Ala, Glu, Tyr, Lys, molecular weight = 9220 daltons (peptide)
chain: AKKYAKKEKAYAKKAEKAAKKAEAKAYKAAEAKKKAKAEAKKYAKAAKAEKKEYAAAEAKYKAEAAKKAYKAEAAKAAAKEAAYEA
B4: TV-109: 109-mer sequence-defined polypeptide molecular weight marker, molecular weight = 11727 daltons (peptide)
chain: AKKYAKKAEKAYAKKAKAAKEKKAYAKKEAKAYKAAEAKKKAKAEAKKYAKEAAKAKKEAYKAEAKKYAKAAKAEKKEYAAAEAKKAEAAKAYKAEAAKAAAKEAAYEA

Assay: Stability of markers in solution at room temperature, followed by peak retention time on chromatography
Type: physicochemical
Conditions: average of the four analyses over 24 hours, room temperature
Method: Stability of markers in solution - TV-markers were chromatographed four times over a period of 24 hours. All markers were kept as solutions at room temperature and were analyzed at 8 hour intervals.

Question: For B1, which “Peak Retention Time, Average” value is on record?
Answer: The value was 27.404.

Question: With B2 as the molecule, how does the “Peak Retention Time, Average” value read?
Answer: Its value is 26.746.

Question: With B3 as the molecule, how does the “Peak Retention Time, Average” value read?
Answer: The value was 26.129.

Question: With B4 as the molecule, how does the “Peak Retention Time, Average” value read?
Answer: Its value is 24.842.

Same assay, conditions: solution at room temperature, 0.1 mg/ml; 1st of four analyses at 8 hour intervals over 24 hours

Question: Which “Peak Retention Time” value does the source give for B1 here?
Answer: The value was 27.400 min.

Question: With B2 as the molecule, how does the “Peak Retention Time” value read?
Answer: Its value is 26.750 min.

Question: Which “Peak Retention Time” value does the source give for B3 here?
Answer: Its value is 26.117 min.

Question: Which “Peak Retention Time” value does the source give for B4 here?
Answer: The value was 24.783 min.

Same assay, conditions: solution at room temperature, 0.1 mg/ml; 2nd of four analyses at 8 hour intervals

Question: For B1, which “Peak Retention Time” value is on record?
Answer: The value was 27.350 min.

Question: Which “Peak Retention Time” value does the source give for B2 here?
Answer: Its value is 26.700 min.

Question: For B3, which “Peak Retention Time” value is on record?
Answer: Its value is 26.100 min.

Question: With B4 as the molecule, how does the “Peak Retention Time” value read?
Answer: Its value is 24.850 min.

Same assay, conditions: solution at room temperature, 0.1 mg/ml; 3rd of four analyses at 8 hour intervals

Question: Which “Peak Retention Time” value does the source give for B1 here?
Answer: Its value is 27.433 min.

Question: Which “Peak Retention Time” value does the source give for B2 here?
Answer: The value was 26.750 min.

Question: Which “Peak Retention Time” value does the source give for B3 here?
Answer: The value was 26.150 min.

Question: Which “Peak Retention Time” value does the source give for B4 here?
Answer: Its value is 24.883 min.

Same assay, conditions: solution at room temperature, 0.1 mg/ml; 4th of four analyses at 8 hour intervals

Question: For B1, which “Peak Retention Time” value is on record?
Answer: Its value is 27.433 min.

Question: For B2, which “Peak Retention Time” value is on record?
Answer: The value was 26.783 min.

Question: Which “Peak Retention Time” value does the source give for B3 here?
Answer: Its value is 26.150 min.

Question: Which “Peak Retention Time” value does the source give for B4 here?
Answer: The value was 24.850 min.

Assay: Circular dichroism, molar ellipticity (Jobin-Yvon CD spectrophotometer)
Type: physicochemical
Parameters: unit not given here
Conditions: not given
Source text: Circular dichroism - Structural similarity between the molecular weight markers and glatiramer acetate is a pre-requisite for an appropriate calibration of a molecular sizing column. Differences in polypeptide structure may result in different hydrodynamic size and consequently in altered retention time in the chromatographic system. The ellipticity, determined by circular dichroism, serves as a measure of the secondary structure of a polypeptide. When the ellipticity of the molecular weight markers and glatiramer acetate is similar, the structures of the two will be similar.
The molar ellipticity of the polypeptides was determined on a Jobin-Yvon CD spectrophotometer. […] Note that while the exact molecular weight for the TV-markers was plotted, the averace-by-number molecular weight for the glatiramer acetate was used in the plot.

Question: For B1, which “M-ellip. (210nm)” value is on record?
Answer: Its value is -3.5172.

Question: Which “M-ellip. (210nm)” value does the source give for B2 here?
Answer: The value was -4.8365.

Question: Which “M-ellip. (210nm)” value does the source give for B3 here?
Answer: The value was -5.4546.

Question: For B4, which “M-ellip. (210nm)” value is on record?
Answer: Its value is -6.818.

Assay: Stability of marker solutions stored frozen at -10 to -20°C, followed by retention time at column calibration
Type: physicochemical
Parameters: unit not given here
Conditions: stored at -10° to -20°C; date of calibration 04-step-97, interval 105 days
Method: In addition, solutions of the markers were stored for up to 3 ½ months under various storage conditions (2-8 °C, -10 to -20°C, with/without azide).

Question: For B1, which RT is on record?
Answer: Its RT is 26.300.

Question: For B2, which RT is on record?
Answer: Its RT is 25.550.

Question: For B3, which RT is on record?
Answer: Its RT is 24.950.

Question: Which RT does the source give for B4 here?
Answer: The RT was 23.583.

Same assay, conditions: stored at -10° to -20°C; date of calibration 09-Jul-97, interval 48 days

Question: With B1 as the molecule, how does the RT read?
Answer: The RT was 26.317.

Question: For B2, which RT is on record?
Answer: Its RT is 25.617.

Question: For B3, which RT is on record?
Answer: The RT was 25.017.

Question: For B4, which RT is on record?
Answer: The RT was 23.650.

Same assay, conditions: stored at -10° to -20°C; date of calibration 22-May-97, interval -

Question: With B1 as the molecule, how does the RT read?
Answer: The RT was 26.233.

Question: With B2 as the molecule, how does the RT read?
Answer: The RT was 25.467.

Question: Which RT does the source give for B3 here?
Answer: Its RT is 24.883.

Question: For B4, which RT is on record?
Answer: Its RT is 23.500.
